Measurements: PMC8137924, “Structural basis for allosteric regulation of Human Topoisomerase IIα” (Nature Communications, 2021)

Target: the molecule itself
Test: cryo-EM structure; hTopo IIα with 30 bp doubly nicked DNA (1:1, 20 µM), 0.5 mM etoposide, 0.5 mM ADPNP, cross-linked with 1 mM BS3; 20 mM Hepes, 100 mM KAc, 50 mM Na-glutamate, 5 mM MgAc2, 0.5 mM TCEP, pH 7.5, 8 mM CHAPSO; single-particle analysis, State 1 (closed) and State 2 (pre-open)

B1: full-length human Topo IIα (1–1531) (enzyme, UniProt P11388 1-1531, looked up)
chain: MEVSPLQPVNENMQVNKIKKNEDAKKRLSVERIYQKKTQLEHILLRPDTYIGSVELVTQQMWVYDEDVGINYREVTFVPGLYKIFDEILVNAADNKQRDPKMSCIRVTIDPENNLISIWNNGKGIPVVEHKVEKMYVPALIFGQLLTSSNYDDDEKKVTGGRNGYGAKLCNIFSTKFTVETASREYKKMFKQTWMDNMGRAGEMELKPFNGEDYTCITFQPDLSKFKMQSLDKDIVALMVRRAYDIAGSTKDVKVFLNGNKLPVKGFRSYVDMYLKDKLDETGNSLKVIHEQVNHRWEVCLTMSEKGFQQISFVNSIATSKGGRHVDYVADQIVTKLVDVVKKKNKGGVAVKAHQVKNHMWIFVNALIENPTFDSQTKENMTLQPKSFGSTCQLSEKFIKAAIGCGIVESILNWVKFKAQVQLNKKCSAVKHNRIKGIPKLDDANDAGGRNSTECTLILTEGDSAKTLAVSGLGVVGRDKYGVFPLRGKILNVREASHKQIMENAEINNIIKIVGLQYKKNYEDEDSLKTLRYGKIMIMTDQDQDGSHIKGLLINFIHHNWPSLLRHRFLEEFITPIVKVSKNKQEMAFYSLPEFEEWKSSTPNHKKWKVKYYKGLGTSTSKEAKEYFADMKRHRIQFKYSGPEDDAAISLAFSKKQIDDRKEWLTNFMEDRRQRKLLGLPEDYLYGQTTTYLTYNDFINKELILFSNSDNERSIPSMVDGLKPGQRKVLFTCFKRNDKREVKVAQLAGSVAEMSSYHHGEMSLMMTIINLAQNFVGSNNLNLLQPIGQFGTRLHGGKDSASPRYIFTMLSSLARLLFPPKDDHTLKFLYDDNQRVEPEWYIPIIPMVLINGAEGIGTGWSCKIPNFDVREIVNNIRRLMDGEEPLPMLPSYKNFKGTIEELAPNQYVISGEVAILNSTTIEISELPVRTWTQTYKEQVLEPMLNGTEKTPPLITDYREYHTDTTVKFVVKMTEEKLAEAERVGLHKVFKLQTSLTCNSMVLFDHVGCLKKYDTVLDILRDFFELRLKYYGLRKEWLLGMLGAESAKLNNQARFILEKIDGKIIIENKPKKELIKVLIQRGYDSDPVKAWKEAQQKVPDEEENEESDNEKETEKSDSVTDSGPTFNYLLDMPLWYLTKEKKDELCRLRNEKEQELDTLKRKSPSDLWKEDLATFIEELEAVEAKEKQDEQVGLPGKGGKAKGKKTQMAEVLPSPRGQRVIPRITIEMKAEAEKKNKKKIKNENTEGSPQEDGVELEGLKQRLEKKQKREPGTKTKKQTTLAFKPIKKGKKRNPWSDSESDRSSDESNFDVPPRETEPRRAATKTKFTMDLDSDEDFSDFDEKTDDEDFVPSDASPPKTKTSPKLSNKELKPQKSVVSDLEADDVKGSVPLSSSPPATHFPDETEITNPVPKKNVTVKKTAAKSQSSTSTTGAKKRAAPKGTKRDPALNSGVSQKPDPAKTKNRRKRKPSTSDDSDSNFEKIVSKAVTSKKSKGESDDFHMDFDSAVAPRAKSVRAKKPIKYLEESDEDDLF
notes: human DNA topoisomerase IIα (TOP2A gene), full length, residues 1-1531; Homodimer; Tags were removed with P3C (PreScission) protease; also called hTopo IIα; human topoisomerase IIα isoform; source: BHK21 C13-2P cells infected with recombinant MVA-T7 virus, purified (Ni chelating resin, StrepTrap, heparin); not shown: Twin-strep, N-terminal, cleaved; His10, C-terminal, cleaved
binding result: binds
